Measurements: article PMC11840927, “Frataxin Traps Low Abundance Quaternary Structure to Stimulate Human Fe–S Cluster Biosynthesis” (Biochemistry, 2025)

Target: T1, NFS1(Δ1–55)-ISD11(S11A)-ACPec complex with N-terminal His6 tag on NFS1 (human | Escherichia coli, UniProt Q9Y697 56-457; Q9HD34 1-91; P0A6A8 1-78, S11A, covalently attached PLP | acyl-4′PPT (assumed mass 523 Da))
T1 construct: NFS1, human cysteine desulfurase, Δ1–55 (residues 56 to the C-terminus); ISD11 (LYRM superfamily), human, S11A; Escherichia coli acyl-carrier protein (ACPec) associated with NFS1-ISD11; Used uniformly 14N or 15N labelled in the exchange experiments; Calculated masses excluded the N-terminal methionine if present; also called SDAec; His-tagged SDAec; not shown: His6, N-terminal, kept; copies: 2 + …
Assay: native MS; complexes formed before the exchange reaction: SDAec with ISCU2 (1:3) or ISCU2 and FXN (1:3:3), IscS with IscU (1:3), 30 min, room temperature, EMR Orbitrap
Conditions: both partners purified

B1: ISCU2 (Δ1–35) (natural protein, human, UniProt Q9H1K1-1 36-167, looked up)
chain: HKKVVDHYENPRNVGSLDKTSKNVGTGLVGAPACGDVMKLQIQVDEKGKIVDARFKTFGCGSAIASSSLATEWVKGKTVEEALTIKNTDIAKELCLPPVKLHCSMLAEDAIKAALADYKLKQEPKKGEAEKK
notes: ISCU2, human Fe–S cluster scaffold protein, Δ1–35 (residues 36 to the C-terminus); Two constructs were made, ISCU2-TEV-GST and ISCU2-TEV-GST-His6; Residues of the TEV site may remain at the C-terminus after cleavage (surmised); also called scaffold protein; source: E. coli BL21(DE3), purified (GST column, TEV digestion, Ni-NTA, cation exchange, Sephacryl S100); not shown: GST, C-terminal, cleaved
binding result: binds

B2: FXN (Δ1–81) (natural protein, human, UniProt Q16595 82-210, looked up)
chain: GTLGHPGSLDETTYERLAEETLDSLAEFFEDLADKPYTFEDYDVSFGSGVLTVKLGGDLGTYVINKQTPNKQIWLSSPSSGPKRYDWTGKNWVYSHDGVSLHELLAAELTKALKTKLDLSSLAYSGKDA
notes: frataxin (FXN), human, Δ1–81 (residues 82 to the C-terminus); also called frataxin
binding result: binds
